Data reported in article PMC2574583 (2008).
Where two headings read alike, the source gives them in different places. Ends that are not written are not given here. * marks the point of attachment. Dansyl = CN(C)c1cccc2c(S(=O)(=O)*)cccc12

Assays:
[1] = target: T1, bBACH1-P phosphopeptide (Homo sapiens, UniProt Q9BX63, also: phosphoserine (position not given here), biotin (position not given here)); assay: SPR steady-state
T1 chain: SRSTSPTFNK

[2] = target: T2, BACH1-P phosphopeptide (Homo sapiens, UniProt Q9BX63, also: phosphoserine (position not given here)); assay: ITC
T2 chain: SRSTSPTFNK

[3] = target: T2, BACH1-P phosphopeptide; assay: ITC
[4] = target: T1, bBACH1-P phosphopeptide; assay: SPR steady-state
[5] = target: T2, BACH1-P phosphopeptide; assay: ITC
[6] = target: T3, dBACH1-P phosphopeptide (Homo sapiens, UniProt Q9BX63, also: phosphoserine (position not given here)); assay: stopped-flow fluorescence
T3 chain: Dansyl-SRSTSPTFNK

[7] = target: T1, bBACH1-P phosphopeptide; assay: SPR steady-state
[8] = target: T1, bBACH1-P phosphopeptide; assay: SPR kinetics
[9] = target: T4, CtIP phosphopeptide phosphopeptide (Homo sapiens, UniProt Q99708, also: phosphoserine (position not given here)); assay: SPR
T4 chain: PTRVSSPVFGAT

[10] = target: T1, bBACH1-P phosphopeptide; assay: ITC
[11] = target: T3, dBACH1-P phosphopeptide; assay: stopped-flow fluorescence
[12] = target: T2, BACH1-P phosphopeptide; assay: ITC
[13] = target: T2, BACH1-P phosphopeptide; assay: ITC
[14] = target: T1, bBACH1-P phosphopeptide; assay: SPR steady-state
[15] = target: T1, bBACH1-P phosphopeptide; assay: SPR kinetics
[16] = target: T3, dBACH1-P phosphopeptide; assay: fluorescence anisotropy

- Kd [1]: 530 nM
- Kd [2]: 330 nM
- Kd [3]: 280 nM
- Kd [4]: 560 nM
- Kd [5]: 500 nM
- Kd [6]: 200 nM
- Kd [7]: 350 nM
- Kd [8]: 90 nM
- Kd [9]: 1300 nM
- Kd [10]: 230 nM
- Kd [11]: 110 nM
- Kd [12]: 410 nM
- Kd [13]: 490 nM
- Kd [14]: 260 nM
- Kd [15]: 430 nM
- Kd [16]: 180 nM
B1: BRCA1-BRCT 1646-1859 (protein)
chain: VNKRMSMVVSGLTPEEFMLVYKFARKHHITLTNLITEETTHVVMKTDAEFVCERTLKYFLGIAGGKWVVSYFWVTQSIKERKMLNEHDFEVRGDVVNGRNHQGPKRARESQDRKIFRGLEICCYGPFTNMPTDQLEWMVQLCGASVVKELSSFTLGTGVHPIVVVQPDAWTEDNGFHAIGQMCEAPVVTREWVLDSVALYQCQELDTYLIPQIP
